# Source: patent publication US6428997
# What was measured:
# [1] = test system: T1, leucyl oligopeptide of SEQ ID NO: 2
# T1 sequence: LFPTEPS
# [2] = test system: T2, methionyl oligopeptide of SEQ ID NO: 1 (Met-Phe-Pro-Thr-Glu-Pro-Ser)
# T2 sequence: MFPTEPS
# [3] = biological target: methionyl human growth hormone (UniProt P01241)
# Sequence of methionyl human growth hormone (P01241 other isoform, or with tags, fused parts or gaps): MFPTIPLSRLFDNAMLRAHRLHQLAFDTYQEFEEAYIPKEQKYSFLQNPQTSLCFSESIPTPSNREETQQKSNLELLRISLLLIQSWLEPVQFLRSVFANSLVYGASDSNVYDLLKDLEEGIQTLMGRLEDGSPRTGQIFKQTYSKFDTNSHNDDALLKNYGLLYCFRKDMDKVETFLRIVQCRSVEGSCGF
substance,measurement,setting,value
aminopeptidase from Bacillus licheniformis (purified from Bacillus licheniformis ATCC 12759),Kcat/Km,[1],1.63e+06 M⁻¹ s⁻¹
same,Km,[1],172 µM
same,kcat,[1],276 s⁻¹
same,Kcat/Km,[2],56100 M⁻¹ s⁻¹
same,Km,[2],387 µM
same,kcat,[2],21.1 s⁻¹
same,removal of N-terminal methionine (N-terminal sequencing of the recovered HGH),[3],remove N-terminal methionine of methionyl HGH completely
same,"removal of N-terminal methionine, large scale (N-terminal sequencing of the recovered HGH)",[3],HGH produced by the above process had phenylalanine at the N-terminus due to methionine removal
